{"source": "patent US20220002700A1", "about": "“COMPUTATIONALLY-OPTIMIZED ACE2 PEPTIDES FOR COMPETITIVE INTERCEPTION OF SARS-CoV-2” (priority 2020, published 2022)", "molecules": {"B1": {"name": "23-mer (A2N)-CHIPΔTPR fusion (protein)", "chain": "QNKTFLDKFNHEAEDLFYQSSLAMRLNFGDDIPSALRIAKKKRWNSIEERRIHQESELHSYLSRLIAAERERELEECQRNHEGDEDDSHVRAQQACIEAKHDKYMADMDELFSQVDEKRKKRDIPDYLCGKISFELMREPCITPSGITYDRKDIEEHLQRVGHFDPVTRSPLTQEQLIPNLAMKEVIDAFISENGWVEDY"}}, "tested_on": "viruses pseudotyped with the SARS-CoV-2 S protein", "assay_type": "cell-based"}
{"molecule": "B1", "values": [{"measurement": "reduction of the infection rate of the pseudovirus", "value": "~60", "unit": "%"}]}
